From patent US6906033

Target: Plasmin
Experiment: enzyme inhibition

Ki | Substance
0.23 nM | Aprotinin
0.17 nM | Aprotinin R15, S42
